B1: Hammerhead Ribozyme (parent)
chain: ACCGGAUGUGCUUUCCGGUCUGAUGAGUCCGUGAGGACGAAACAG

Variants of: B1
Assay: self-cleavage, relative activity (ratio to wild type); higher = more cleavage; co-transcriptional

Going from ACCGGAUGUGCUUUCCGGUCUGAUGAGUCCGUCAGGACCAAACAG [G33C G39C] to ACCGGAUGUGCUUUCCGGUCUGAUGAGUCCGUCAGGACUAAACAG [G33C G39U], the self-cleavage falls from 0.375 to 0.364.

First: ACCGGAUGUGCUUUCCGGUCUGAUGAGUCCGUCAGGACAAAACAG [G33C G39A]
Second: ACCGGAUGUGCUUUCCGGUCUGAUGAGUCCGUGCGGACGAAACAC [A34C G45C]
The self-cleavage of the first is lower: 0.332 for the first, 0.441 for the second.

Compared with ACCGGAUGUGCUUUCCGGUCUGAUGAGUCCGUGCGGACGAAACAU [A34C G45U], ACCGGAUGUGCUUUCCGGUCUGAUGAGUCCGUGCGGACGAAACAA [A34C G45A] is higher in self-cleavage: 0.515 for the first, 0.524 for the second.

Going from ACCGGAUGUGCUUUCCGGUCUGAUGAGUCCGUUAGGACGAAACAG [G33U] to ACCGGAUGUGCUUUCCGGUCUGAUGAGUCCGUGCGGACGAGACAG [A34C A41G], the self-cleavage falls from 0.977 to 0.367.

Going from ACCGGAUGUGCUUUCCGGUCUGAUGAGUCCGUGCGGACGACACAG [A34C A41C] to ACCGGAUGUGCUUUCCGGUCUGAUGAGUCCGUGCGGACGAUACAG [A34C A41U], the self-cleavage rises from 0.354 to 0.363.

Going from ACCGGAUGUGCUUUCCGGUCUGAUGAGUCCGUGCGGACAAAACAG [A34C G39A] to ACCGGAUGUGCUUUCCGGUCUGAUGAGUCCGUGCGGACCAAACAG [A34C G39C], the self-cleavage rises from 0.288 to 0.32.

Compared with ACCGGAUGUGCUUUCCGGUCUGAUGAGUCCGUGCGGACUAAACAG [A34C G39U], ACCGGAUGUGCUUUCCGGUCUGAUGAGUCCGUGCGGACGAAACCG [A34C A44C] is lower in self-cleavage: 0.404 for the first, 0.341 for the second.

First: ACCGGAUGUGCUUUCCGGUCUGAUGAGUCCGUGCGGACGAAACGG [A34C A44G]
Second: ACCGGAUGUGCUUUCCGGUCUGAUGAGUCCGUGCGGACGAAACUG [A34C A44U]
The self-cleavage of the first is higher: 0.727 for the first, 0.512 for the second.

First: ACCGGAUGUGCUUUCCGGUCUGAUGAGUCCGUGGAGACGAAACAG [A34G G35A]
Second: ACCGGAUGUGCUUUCCGGUCUGAUGAGUCCGUGGCGACGAAACAG [A34G G35C]
The self-cleavage of the first is lower: 0.675 for the first, 0.771 for the second.

Compared with ACCGGAUGUGCUUUCCGGUCUGAUGAGUCCGUGGUGACGAAACAG [A34G G35U], ACCGGAUGUGCUUUCCGGUCUGAUGAGUCCGUUAGGCCGAAACAG [G33U A37C] is higher in self-cleavage: 0.847 for the first, 1.04 for the second.

First: ACCGGAUGUGCUUUCCGGUCUGAUGAGUCCGUUAGGGCGAAACAG [G33U A37G]
Second: ACCGGAUGUGCUUUCCGGUCUGAUGAGUCCGUUAGGUCGAAACAG [G33U A37U]
The self-cleavage of the first is higher: 1.04 for the first, 0.972 for the second.

Going from ACCGGAUGUGCUUUCCGGUCUGAUGAGUCCGUUAGGACGAAUCAG [G33U A42U] to ACCGGAUGUGCUUUCCGGUCUGAUGAGUCCGUUAGGACGAACCAG [G33U A42C], the self-cleavage falls from 0.371 to 0.366.

Going from ACCGGAUGUGCUUUCCGGUCUGAUGAGUCCGUUAGGACGAAGCAG [G33U A42G] to ACCGGAUGUGCUUUCCGGUCUGAUGAGUCCGUUAGGACGAAACUG [G33U A44U], the self-cleavage rises from 0.312 to 0.87.

First: ACCGGAUGUGCUUUCCGGUCUGAUGAGUCCGUUAGGACGAAACGG [G33U A44G]
Second: ACCGGAUGUGCUUUCCGGUCUGAUGAGUCCGUUAGGACGAAACCG [G33U A44C]
The self-cleavage of the first is higher: 1.44 for the first, 0.596 for the second.

Compared with ACCGGAUGUGCUUUCCGGUCUGAUGAGUCCGUUAGGACAAAACAG [G33U G39A], ACCGGAUGUGCUUUCCGGUCUGAUGAGUCCGUUAGGACUAAACAG [G33U G39U] is higher in self-cleavage: 0.341 for the first, 0.343 for the second.

First: ACCGGAUGUGCUUUCCGGUCUGAUGAGUCCGUUAGGACCAAACAG [G33U G39C]
Second: ACCGGAUGUGCUUUCCGGUCUGAUGAGUCCGUUAAGACGAAACAG [G33U G35A]
The self-cleavage of the first is lower: 0.464 for the first, 0.774 for the second.

Compared with ACCGGAUGUGCUUUCCGGUCUGAUGAGUCCGUUAUGACGAAACAG [G33U G35U], ACCGGAUGUGCUUUCCGGUCUGAUGAGUCCGUUACGACGAAACAG [G33U G35C] is higher in self-cleavage: 0.914 for the first, 0.964 for the second.

First: ACCGGAUGUGCUUUCCGGUCUGAUGAGUCCGUGCGGACGAAAUAG [A34C C43U]
Second: ACCGGAUGUGCUUUCCGGUCUGAUGAGUCCGUGCGGACGAAAGAG [A34C C43G]
The self-cleavage of the first is lower: 0.287 for the first, 0.327 for the second.

First: ACCGGAUGUGCUUUCCGGUCUGAUGAGUCCGUGCGGACGAAAAAG [A34C C43A]
Second: ACCGGAUGUGCUUUCCGGUCUGAUGAGUCCGUCAGGACGAAACAC [G33C G45C]
The self-cleavage of the first is lower: 0.309 for the first, 0.46 for the second.

First: ACCGGAUGUGCUUUCCGGUCUGAUGAGUCCGUCAGGACGAAACAA [G33C G45A]
Second: ACCGGAUGUGCUUUCCGGUCUGAUGAGUCCGUCAGGACGAAACAU [G33C G45U]
The self-cleavage of the first is lower: 0.873 for the first, 0.874 for the second.

Compared with ACCGGAUGUGCUUUCCGGUCUGAUGAGUCCGUGCGGAUGAAACAG [A34C C38U], ACCGGAUGUGCUUUCCGGUCUGAUGAGUCCGUGCGGAAGAAACAG [A34C C38A] is lower in self-cleavage: 0.758 for the first, 0.472 for the second.

First: ACCGGAUGUGCUUUCCGGUCUGAUGAGUCCGUGCGGAGGAAACAG [A34C C38G]
Second: ACCGGAUGUGCUUUCCGGUCUGAUGAGUCCGUUGGGACGAAACAG [G33U A34G]
The self-cleavage of the first is lower: 0.436 for the first, 0.752 for the second.

First: ACCGGAUGUGCUUUCCGGUCUGAUGAGUCCGUUCGGACGAAACAG [G33U A34C]
Second: ACCGGAUGUGCUUUCCGGUCUGAUGAGUCCGUUUGGACGAAACAG [G33U A34U]
The self-cleavage of the first is lower: 0.895 for the first, 0.952 for the second.

Going from ACCGGAUGUGCUUUCCGGUCUGAUGAGUCCGUUAGGACGAAAGAG [G33U C43G] to ACCGGAUGUGCUUUCCGGUCUGAUGAGUCCGUUAGGACGAAAUAG [G33U C43U], the self-cleavage rises from 0.449 to 0.598.

Compared with ACCGGAUGUGCUUUCCGGUCUGAUGAGUCCGUUAGGACGAAAAAG [G33U C43A], ACCGGAUGUGCUUUCCGGUCUGAUGAGUCCGUGGGGACGCAACAG [A34G A40C] is lower in self-cleavage: 0.466 for the first, 0.44 for the second.

First: ACCGGAUGUGCUUUCCGGUCUGAUGAGUCCGUGGGGACGGAACAG [A34G A40G]
Second: ACCGGAUGUGCUUUCCGGUCUGAUGAGUCCGUGGGGACGUAACAG [A34G A40U]
The self-cleavage of the first is higher: 0.345 for the first, 0.334 for the second.

Compared with ACCGGAUGUGCUUUCCGGUCUGAUGAGUCCGUGCGGACGAACCAG [A34C A42C], ACCGGAUGUGCUUUCCGGUCUGAUGAGUCCGUGCGGACGAAGCAG [A34C A42G] is lower in self-cleavage: 0.397 for the first, 0.254 for the second.

Compared with ACCGGAUGUGCUUUCCGGUCUGAUGAGUCCGUGCGGACGAAUCAG [A34C A42U], ACCGGAUGUGCUUUCCGGUCUGAUGAGUCCGUGGGGACGAAUCAG [A34G A42U] is higher in self-cleavage: 0.322 for the first, 0.329 for the second.

Work on ACCGGAUGUGCUUUCCGGUCUGAUGAGUCCGUGGGGACGAAGCAG [A34G A42G] yielded a self-cleavage of 0.264.

From the RNAGym collection of RNA variant scans (doi:10.7554/elife.80360)
